Source: patent US20250002543A1

Target: immunoglobulin immobilized on IgG Sepharose 6 Fast Flow (manufactured by Cytiva)
Assay: IgG Sepharose 6 Fast Flow column; linear gradient 0.1 M citrate pH 6.5 to pH 2.2; pH at the peak of the eluted binding protein

Binder | Elution pH
FpL_C3 G21R (designed binder) ETPEEPKEEVTIKVNLIFADRKIQTAEFKGTFEEATAKAYAYANLLAKENGEYTADLEDGGNTINIKFAGHHHHHH | 3.4 pH
FpL_C3 G51V (designed binder) ETPEEPKEEVTIKVNLIFADGKIQTAEFKGTFEEATAKAYAYANLLAKENVEYTADLEDGGNTINIKFAGHHHHHH | 3.4 pH
FpL_C3 N62R (designed binder) ETPEEPKEEVTIKVNLIFADGKIQTAEFKGTFEEATAKAYAYANLLAKENGEYTADLEDGGRTINIKFAGHHHHHH | 3 pH
FpL_C3 N62Y (designed binder) ETPEEPKEEVTIKVNLIFADGKIQTAEFKGTFEEATAKAYAYANLLAKENGEYTADLEDGGYTINIKFAGHHHHHH | 3 pH
FpL_C3 N62W (designed binder) ETPEEPKEEVTIKVNLIFADGKIQTAEFKGTFEEATAKAYAYANLLAKENGEYTADLEDGGWTINIKFAGHHHHHH | 3 pH
FpL_C3 N62H (designed binder) ETPEEPKEEVTIKVNLIFADGKIQTAEFKGTFEEATAKAYAYANLLAKENGEYTADLEDGGHTINIKFAGHHHHHH | 3 pH

Next, values leading:

Elution pH | Binder
3 pH | FpL_C4KR amino acid substitution mutant Lys(Arg)7Gln (designed binder) ETPEEPQEEVTIRVNLIFADGRTQTAEFRGTFEEATAEAYRYADLLARVNGEYTADLEDGGYTINIRFAGHHHHHH
3.1 pH | FpL_C4KR amino acid substitution mutant Lys(Arg)29Val (designed binder) ETPEEPREEVTIRVNLIFADGRTQTAEFVGTFEEATAEAYRYADLLARVNGEYTADLEDGGYTINIRFAGHHHHHH
3.1 pH | FpL_C4KR amino acid substitution mutant Lys(Arg)29Ile (designed binder) ETPEEPREEVTIRVNLIFADGRTQTAEFIGTFEEATAEAYRYADLLARVNGEYTADLEDGGYTINIRFAGHHHHHH
3.2 pH | FpL_C4KR amino acid substitution mutant Lys(Arg)22Thr (designed binder) ETPEEPREEVTIRVNLIFADGTTQTAEFRGTFEEATAEAYRYADLLARVNGEYTADLEDGGYTINIRFAGHHHHHH
3.1 pH | FpL_C4KR amino acid substitution mutant Lys(Arg)13Val (designed binder) ETPEEPREEVTIVVNLIFADGRTQTAEFRGTFEEATAEAYRYADLLARVNGEYTADLEDGGYTINIRFAGHHHHHH
3.2 pH | FpL_C4KR amino acid substitution mutant Lys(Arg)29Pro (designed binder) ETPEEPREEVTIRVNLIFADGRTQTAEFPGTFEEATAEAYRYADLLARVNGEYTADLEDGGYTINIRFAGHHHHHH

Target: human antibody (gamma globulin preparation, manufactured by The Chemo-Sero-Therapeutic Research Institute) (human)
Assay: ELISA; human gamma globulin immobilised; acid treatment 50 mM buffer pH 3.2, 25 C, 5 min; elution rate = 1 - remaining binding activity

Elution rate [%] | Binder
46% | FpL_C3KX 7e (designed binder) ETPGESAEEVTIRVNLIFADGRIQTAEFIGTFEEATAEAYAYANLLARDYGEFTADLEDGGYTINIRFVGHHHHHH
69% | FpL_C3KX 9c (designed binder) ETPGESAEEVTIRVNLIFADGRRQTAEFIGTFEEATAEAYAYANLLARDYGEFTADLEDGGYTLNIRFVGHHHHHH
70% | FpL_C3KX 9a (designed binder) ETPGESAEEVTIRVNLIFADGRRQTAEFIGTFEEATAEAYAYARLLARDYGEFTADLEDGGYTINIRFVGHHHHHH
67% | FpL_C3KX 10b (designed binder) ETPGESAEEVTIRVNLIFADGRRQTAEFIGTFEEATAEAYAYAHLLAHDYGEFTADLEDGGYTLNIRFVGHHHHHH
68% | FpL_C3KX 9e (designed binder) ETPGESAEEVTIRVNLIFADGRIQTAEFIGTFEEATAEAYAYAHLLARDYGEFTADLEDGGYTLNIRFVGHHHHHH
63% | FpL_C3KX 9d (designed binder) ETPGESAEEVTIRVNLIFADGRIQTAEFIGTFEEATAEAYAYARLLARDYGEFTADLEDGGYTLNIRFVGHHHHHH
75% | FpL_C3KX 10a (designed binder) ETPGESAEEVTIRVNLIFADGRRQTAEFIGTFEEATAEAYAYARLLAHDYGEFTADLEDGGYTLNIRFVGHHHHHH
68% | FpL_C3KX 9b (designed binder) ETPGESAEEVTIRVNLIFADGRRQTAEFIGTFEEATAEAYAYAHLLARDYGEFTADLEDGGYTINIRFVGHHHHHH

Target: human antibody (gamma globulin preparation, manufactured by The Chemo-Sero-Therapeutic Research Institute) (human)
Assay: as above
Remark: another data set of the same source

Binder | Elution rate [%]
FpL_C3KX 7e (designed binder) ETPGESAEEVTIRVNLIFADGRIQTAEFIGTFEEATAEAYAYANLLARDYGEFTADLEDGGYTINIRFVGHHHHHH | 26%
FpL_C3KX 7e amino acid substitution mutant Asn15Val (designed binder) ETPGESAEEVTIRVVLIFADGRIQTAEFIGTFEEATAEAYAYANLLARDYGEFTADLEDGGYTINIRFVGHHHHHH | 29%

The next lines start with the values.

Elution rate [%] | Binder
64% | FpL_C3KX 7e amino acid substitution mutant Glu34Phe (designed binder) ETPGESAEEVTIRVNLIFADGRIQTAEFIGTFEFATAEAYAYANLLARDYGEFTADLEDGGYTINIRFVGHHHHHH
29% | FpL_C3KX 7e amino acid substitution mutant Glu34Val (designed binder) ETPGESAEEVTIRVNLIFADGRIQTAEFIGTFEVATAEAYAYANLLARDYGEFTADLEDGGYTINIRFVGHHHHHH
51% | FpL_C3KX 7e amino acid substitution mutant Glu34Leu (designed binder) ETPGESAEEVTIRVNLIFADGRIQTAEFIGTFELATAEAYAYANLLARDYGEFTADLEDGGYTINIRFVGHHHHHH
46% | FpL_C3KX 7e amino acid substitution mutant Glu34Asp (designed binder) ETPGESAEEVTIRVNLIFADGRIQTAEFIGTFEDATAEAYAYANLLARDYGEFTADLEDGGYTINIRFVGHHHHHH

Target: human antibody (gamma globulin preparation, manufactured by The Chemo-Sero-Therapeutic Research Institute) (human)
Assay: ELISA; human gamma globulin immobilised; acid treatment 50 mM buffer pH 3.0, 25 C, 15 min; elution rate = 1 - remaining binding activity

Elution rate [%] | Binder
78% | FpL_C3KX 7d (designed binder) ETPGESAEEVTIRVNLIFADGRIQTAEFIGTFEEATAEAYAYANLLARDYGDFTADLEDGGYTINIRFAGHHHHHH
81% | FpL_C3KX 7d_I23F (designed binder) ETPGESAEEVTIRVNLIFADGRFQTAEFIGTFEEATAEAYAYANLLARDYGDFTADLEDGGYTINIRFAGHHHHHH
82% | FpL_C3KX 7d_N44H (designed binder) ETPGESAEEVTIRVNLIFADGRIQTAEFIGTFEEATAEAYAYAHLLARDYGDFTADLEDGGYTINIRFAGHHHHHH
82% | FpL_C3KX 7d_I23L (designed binder) ETPGESAEEVTIRVNLIFADGRLQTAEFIGTFEEATAEAYAYANLLARDYGDFTADLEDGGYTINIRFAGHHHHHH
82% | FpL_C3KX 7d_E8R (designed binder) ETPGESAREVTIRVNLIFADGRIQTAEFIGTFEEATAEAYAYANLLARDYGDFTADLEDGGYTINIRFAGHHHHHH
86% | FpL_C3KX 7d_K38H (designed binder) ETPGESAEEVTIRVNLIFADGRIQTAEFIGTFEEATAHAYAYANLLARDYGDFTADLEDGGYTINIRFAGHHHHHH
85% | FpL_C3KX 7d_E52Y (designed binder) ETPGESAEEVTIRVNLIFADGRIQTAEFIGTFEEATAEAYAYANLLARDYGYFTADLEDGGYTINIRFAGHHHHHH
83% | FpL_C3KX 7d_Y53S (designed binder) ETPGESAEEVTIRVNLIFADGRIQTAEFIGTFEEATAEAYAYANLLARDYGDSTADLEDGGYTINIRFAGHHHHHH
82% | FpL_C3KX 7d_N44R (designed binder) ETPGESAEEVTIRVNLIFADGRIQTAEFIGTFEEATAEAYAYARLLARDYGDFTADLEDGGYTINIRFAGHHHHHH
82% | FpL_C3KX 7d_P6A (designed binder) ETPGEAAEEVTIRVNLIFADGRIQTAEFIGTFEEATAEAYAYANLLARDYGDFTADLEDGGYTINIRFAGHHHHHH
88% | FpL_C3KX 7d_K38L (designed binder) ETPGESAEEVTIRVNLIFADGRIQTAEFIGTFEEATALAYAYANLLARDYGDFTADLEDGGYTINIRFAGHHHHHH
86% | FpL_C3KX 7d_N50M (designed binder) ETPGESAEEVTIRVNLIFADGRIQTAEFIGTFEEATAEAYAYANLLARDMGDFTADLEDGGYTINIRFAGHHHHHH
86% | FpL_C3KX 7d_E33V (designed binder) ETPGESAEEVTIRVNLIFADGRIQTAEFIGTFVEATAEAYAYANLLARDYGDFTADLEDGGYTINIRFAGHHHHHH
85% | FpL_C3KX 7d_K48H (designed binder) ETPGESAEEVTIRVNLIFADGRIQTAEFIGTFEEATAEAYAYANLLAHDYGDFTADLEDGGYTINIRFAGHHHHHH
80% | FpL_C3KX 7d_E8G (designed binder) ETPGESAGEVTIRVNLIFADGRIQTAEFIGTFEEATAEAYAYANLLARDYGDFTADLEDGGYTINIRFAGHHHHHH
82% | FpL_C3KX 7d_G21R (designed binder) ETPGESAEEVTIRVNLIFADRRIQTAEFIGTFEEATAEAYAYANLLARDYGDFTADLEDGGYTINIRFAGHHHHHH
